Data taken from the supplement of paper PMC10065799, “High-throughput profiling of sequence recognition by tyrosine kinases and SH2 domains using bacterial peptide display” (eLife, 2023).

Columns and labels:
[1] = test system: AncSZ; assay: phosphorylation enrichment, bacterial display (enrichment ratio); higher = better substrate or ligand; peptides without Tyr show the background
[2] = target: EPHB1 (UniProt P54762); assay: as above
[3] = target: EPHB2 (UniProt P29323); assay: as above
[4] = target: FGFR1 (UniProt P11362); assay: as above
[5] = target: FGFR3 (UniProt P22607); assay: as above
[6] = test system: Fer (mouse); assay: as above
[7] = target: Fes (UniProt P07332); assay: as above
[8] = target: Fyn (UniProt P06241); assay: as above
[9] = target: Hck (UniProt P08631); assay: as above
[10] = target: Jak2 (UniProt O60674); assay: as above
[11] = target: MERTK (UniProt Q12866); assay: as above
[12] = test system: c-Abl (mouse); assay: as above
[13] = test system: c-Src; assay: as above
[14] = target: Grb2 SH2 (UniProt P62993); assay: SH2 binding enrichment of the phosphorylated peptide, bacterial display (enrichment ratio); higher = better substrate or ligand; peptides without Tyr show the background
[15] = target: SHP2-C SH2; assay: as above
[16] = target: c-Src SH2; assay: as above
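Throughout, for SH2 binding enrichment of the phosphorylated peptide, bacterial display: peptide library displayed on the E. coli surface as eCPX fusions, selected cells deep-sequenced, score is each peptide's frequency after selection divided by its frequency in the input.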
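Throughout, for phosphorylation enrichment, bacterial display: 11-residue human phosphosite peptides and single-mutation variants displayed on the E. coli surface, counted by deep sequencing, each peptide's frequency after selection divided by its frequency in the unselected input library; frequency after pTyr selection over input frequency; kinase dosed for 20-30% of maximal phosphorylation in three min.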

Chain of FGFR3 (P22607 whole entry, looked up): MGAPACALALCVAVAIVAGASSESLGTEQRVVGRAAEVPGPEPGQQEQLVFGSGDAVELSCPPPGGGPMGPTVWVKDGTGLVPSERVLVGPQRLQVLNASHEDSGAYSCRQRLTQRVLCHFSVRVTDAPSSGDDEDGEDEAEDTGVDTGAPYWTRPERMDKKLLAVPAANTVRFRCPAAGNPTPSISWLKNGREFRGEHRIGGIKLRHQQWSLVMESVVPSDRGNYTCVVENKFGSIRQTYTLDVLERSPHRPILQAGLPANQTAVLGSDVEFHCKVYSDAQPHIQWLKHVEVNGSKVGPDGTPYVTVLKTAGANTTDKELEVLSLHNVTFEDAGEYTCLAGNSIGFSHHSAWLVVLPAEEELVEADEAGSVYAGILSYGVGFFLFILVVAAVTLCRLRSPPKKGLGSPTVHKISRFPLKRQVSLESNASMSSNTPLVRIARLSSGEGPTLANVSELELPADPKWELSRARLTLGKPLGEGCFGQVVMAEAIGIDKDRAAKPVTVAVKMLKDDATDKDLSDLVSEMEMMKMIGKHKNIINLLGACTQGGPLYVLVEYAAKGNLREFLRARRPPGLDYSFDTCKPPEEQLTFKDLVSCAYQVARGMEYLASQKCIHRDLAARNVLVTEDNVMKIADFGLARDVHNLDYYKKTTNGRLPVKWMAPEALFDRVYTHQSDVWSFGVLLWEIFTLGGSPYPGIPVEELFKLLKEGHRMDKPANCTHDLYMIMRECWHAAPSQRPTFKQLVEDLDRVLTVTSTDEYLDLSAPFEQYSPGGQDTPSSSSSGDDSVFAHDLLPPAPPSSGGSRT
Chain of Fes (P07332 whole entry, looked up): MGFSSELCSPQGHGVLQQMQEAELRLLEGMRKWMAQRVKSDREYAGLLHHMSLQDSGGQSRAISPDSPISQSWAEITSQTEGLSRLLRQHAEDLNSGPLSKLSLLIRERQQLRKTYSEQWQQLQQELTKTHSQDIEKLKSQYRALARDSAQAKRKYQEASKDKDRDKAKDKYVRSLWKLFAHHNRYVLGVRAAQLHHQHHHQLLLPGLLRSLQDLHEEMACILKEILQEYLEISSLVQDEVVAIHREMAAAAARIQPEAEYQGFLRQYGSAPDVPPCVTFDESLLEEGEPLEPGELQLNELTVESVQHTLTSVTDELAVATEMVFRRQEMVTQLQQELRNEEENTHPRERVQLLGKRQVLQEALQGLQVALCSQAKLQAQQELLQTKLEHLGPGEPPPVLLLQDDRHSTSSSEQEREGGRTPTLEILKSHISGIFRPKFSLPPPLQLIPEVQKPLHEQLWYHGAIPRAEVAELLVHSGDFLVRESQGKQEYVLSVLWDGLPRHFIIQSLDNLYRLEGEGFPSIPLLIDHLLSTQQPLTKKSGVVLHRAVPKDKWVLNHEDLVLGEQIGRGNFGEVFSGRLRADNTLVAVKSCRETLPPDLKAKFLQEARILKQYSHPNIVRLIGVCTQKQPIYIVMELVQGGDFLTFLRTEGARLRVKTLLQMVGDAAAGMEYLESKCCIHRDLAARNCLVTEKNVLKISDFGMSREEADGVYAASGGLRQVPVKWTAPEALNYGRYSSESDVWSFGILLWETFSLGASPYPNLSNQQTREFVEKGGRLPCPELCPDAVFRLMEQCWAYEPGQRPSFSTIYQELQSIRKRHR
Chain of EPHB1 (P54762 whole entry, looked up): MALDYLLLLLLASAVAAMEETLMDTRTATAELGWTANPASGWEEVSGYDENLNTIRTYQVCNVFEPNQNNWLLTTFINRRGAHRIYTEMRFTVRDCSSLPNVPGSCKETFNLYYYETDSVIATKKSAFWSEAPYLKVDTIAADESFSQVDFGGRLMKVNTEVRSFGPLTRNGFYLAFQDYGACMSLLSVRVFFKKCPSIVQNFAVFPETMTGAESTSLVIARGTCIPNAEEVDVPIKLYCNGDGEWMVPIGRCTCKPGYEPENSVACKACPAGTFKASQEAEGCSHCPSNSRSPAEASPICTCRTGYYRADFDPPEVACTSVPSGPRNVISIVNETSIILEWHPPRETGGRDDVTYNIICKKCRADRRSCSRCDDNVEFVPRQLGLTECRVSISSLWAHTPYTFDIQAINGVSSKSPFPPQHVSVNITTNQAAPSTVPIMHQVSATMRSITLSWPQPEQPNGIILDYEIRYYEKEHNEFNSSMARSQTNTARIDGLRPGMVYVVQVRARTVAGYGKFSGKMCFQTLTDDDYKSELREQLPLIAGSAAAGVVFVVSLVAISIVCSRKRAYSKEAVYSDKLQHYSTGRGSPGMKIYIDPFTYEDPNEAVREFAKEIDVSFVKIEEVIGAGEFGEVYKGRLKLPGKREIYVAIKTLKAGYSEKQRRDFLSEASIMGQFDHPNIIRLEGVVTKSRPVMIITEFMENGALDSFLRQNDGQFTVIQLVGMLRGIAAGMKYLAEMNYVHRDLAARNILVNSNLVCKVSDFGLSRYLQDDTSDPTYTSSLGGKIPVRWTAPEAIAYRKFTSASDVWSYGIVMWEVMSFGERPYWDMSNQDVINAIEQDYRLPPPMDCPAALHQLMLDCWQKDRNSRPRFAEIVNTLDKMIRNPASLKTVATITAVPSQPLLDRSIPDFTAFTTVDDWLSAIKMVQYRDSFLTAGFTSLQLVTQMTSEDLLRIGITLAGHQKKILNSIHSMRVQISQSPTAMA
Chain of EPHB2 (P29323 whole entry, looked up): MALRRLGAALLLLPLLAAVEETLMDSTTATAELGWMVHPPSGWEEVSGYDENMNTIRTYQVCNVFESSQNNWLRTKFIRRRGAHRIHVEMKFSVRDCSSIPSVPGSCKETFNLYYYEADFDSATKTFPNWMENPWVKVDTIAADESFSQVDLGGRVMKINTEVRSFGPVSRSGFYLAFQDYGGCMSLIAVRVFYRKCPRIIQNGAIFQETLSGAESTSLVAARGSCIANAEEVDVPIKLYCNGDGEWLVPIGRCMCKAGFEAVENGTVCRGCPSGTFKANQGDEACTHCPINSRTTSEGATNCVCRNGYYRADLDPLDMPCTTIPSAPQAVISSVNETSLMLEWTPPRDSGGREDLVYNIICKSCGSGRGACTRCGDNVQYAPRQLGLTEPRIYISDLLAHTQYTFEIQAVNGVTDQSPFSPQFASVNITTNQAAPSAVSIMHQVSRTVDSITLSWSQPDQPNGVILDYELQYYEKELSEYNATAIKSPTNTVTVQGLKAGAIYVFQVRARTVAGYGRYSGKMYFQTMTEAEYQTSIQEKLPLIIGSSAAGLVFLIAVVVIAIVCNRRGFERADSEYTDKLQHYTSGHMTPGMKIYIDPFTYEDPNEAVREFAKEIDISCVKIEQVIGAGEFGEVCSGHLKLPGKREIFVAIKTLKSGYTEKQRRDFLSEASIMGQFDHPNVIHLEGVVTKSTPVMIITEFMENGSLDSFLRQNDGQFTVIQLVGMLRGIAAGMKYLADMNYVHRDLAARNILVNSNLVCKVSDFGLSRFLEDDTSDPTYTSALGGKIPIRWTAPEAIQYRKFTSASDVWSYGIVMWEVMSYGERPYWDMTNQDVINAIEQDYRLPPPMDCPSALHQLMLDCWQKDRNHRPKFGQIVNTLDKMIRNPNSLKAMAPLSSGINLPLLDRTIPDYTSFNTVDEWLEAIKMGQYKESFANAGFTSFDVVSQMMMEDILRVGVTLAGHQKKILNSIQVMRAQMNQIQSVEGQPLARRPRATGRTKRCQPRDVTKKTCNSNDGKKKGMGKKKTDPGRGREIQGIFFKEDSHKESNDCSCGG
Chain of FGFR1 (P11362 whole entry, looked up): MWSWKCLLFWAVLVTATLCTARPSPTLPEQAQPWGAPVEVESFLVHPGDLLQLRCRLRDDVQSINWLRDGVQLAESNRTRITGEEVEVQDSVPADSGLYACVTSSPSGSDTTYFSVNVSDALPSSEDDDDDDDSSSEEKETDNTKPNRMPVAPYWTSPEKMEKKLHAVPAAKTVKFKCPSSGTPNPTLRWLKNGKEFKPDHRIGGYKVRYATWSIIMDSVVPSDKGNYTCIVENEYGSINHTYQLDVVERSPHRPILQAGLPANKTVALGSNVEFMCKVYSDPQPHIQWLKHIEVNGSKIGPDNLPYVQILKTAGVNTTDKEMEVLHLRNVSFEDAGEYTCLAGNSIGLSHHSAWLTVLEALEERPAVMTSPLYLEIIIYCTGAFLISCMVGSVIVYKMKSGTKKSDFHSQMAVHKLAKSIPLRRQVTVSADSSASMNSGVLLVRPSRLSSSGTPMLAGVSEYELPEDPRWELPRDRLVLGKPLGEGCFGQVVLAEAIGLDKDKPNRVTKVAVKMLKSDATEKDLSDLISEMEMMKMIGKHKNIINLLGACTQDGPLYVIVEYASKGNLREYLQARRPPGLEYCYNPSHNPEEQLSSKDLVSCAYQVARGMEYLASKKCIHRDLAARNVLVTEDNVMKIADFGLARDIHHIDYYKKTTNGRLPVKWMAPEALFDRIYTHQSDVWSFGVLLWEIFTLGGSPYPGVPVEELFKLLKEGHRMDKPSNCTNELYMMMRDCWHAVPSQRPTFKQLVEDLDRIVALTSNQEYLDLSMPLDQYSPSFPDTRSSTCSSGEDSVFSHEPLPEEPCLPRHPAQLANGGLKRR
Chain of Fyn (P06241 whole entry, looked up): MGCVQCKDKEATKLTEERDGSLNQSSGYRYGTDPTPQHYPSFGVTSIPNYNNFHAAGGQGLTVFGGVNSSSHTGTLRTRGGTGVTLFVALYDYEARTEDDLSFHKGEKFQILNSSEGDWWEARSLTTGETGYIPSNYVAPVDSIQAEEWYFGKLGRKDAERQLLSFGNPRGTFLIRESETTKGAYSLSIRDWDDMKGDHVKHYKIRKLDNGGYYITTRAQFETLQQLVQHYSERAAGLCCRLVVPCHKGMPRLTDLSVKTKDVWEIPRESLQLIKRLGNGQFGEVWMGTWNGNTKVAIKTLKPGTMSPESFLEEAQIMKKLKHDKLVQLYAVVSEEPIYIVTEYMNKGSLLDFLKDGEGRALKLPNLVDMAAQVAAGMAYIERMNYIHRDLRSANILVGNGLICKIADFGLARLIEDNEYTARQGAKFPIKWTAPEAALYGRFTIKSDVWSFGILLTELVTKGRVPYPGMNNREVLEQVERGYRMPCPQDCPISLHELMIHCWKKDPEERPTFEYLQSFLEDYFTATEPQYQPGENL

Row | Sequence | SH2 binding enrichment [14] | SH2 binding enrichment [15] | SH2 binding enrichment [16] | phosphorylation enrichment [1] | phosphorylation enrichment [2] | phosphorylation enrichment [3] | phosphorylation enrichment [4] | phosphorylation enrichment [5] | phosphorylation enrichment [6] | phosphorylation enrichment [7] | phosphorylation enrichment [8] | phosphorylation enrichment [9] | phosphorylation enrichment [10] | phosphorylation enrichment [11] | phosphorylation enrichment [12] | phosphorylation enrichment [13]
1 | GAVGNYSGGLA [MGMT_Y158] | 0.551 | 0.622 | 0.367 | 0.57 | 0.554 | 0.48 | 0.453 | 0.61 | 0.483 | 0.765 | 0.374 | 0.408 | 0.419 | 0.422 | 0.43 | 0.335
2 | MANYVYKAGPS [MAML2_Y515_M514V] | 0.755 | 1.09 | 0.547 | 0.448 | 0.476 | 0.455 | 0.434 | 0.508 | 0.343 | 0.643 | 0.451 | 0.419 | 0.452 | 0.473 | 0.815 | 0.457
3 | PYAEPYADYGG [APBA1_Y187_S184A] | 0.836 | 0.695 | 7.71 | 2.86 | 1.16 | 1.4 | 2.13 | 1.76 | 0.861 | 3.07 | 1.33 | 1.19 | 2.47 | 0.853 | 1.82 | 5.47
4 | AGTILSHAHLD [ASS1_Y291_Y291S] | 0.696 | 0.55 | 0.374 | 0.75 | 0.788 | 0.459 | 0.364 | 0.546 | 0.374 | 0.847 | 0.367 | 0.412 | 0.707 | 0.289 | 0.622 | 0.384
5 | LAETSYVIVLE [MAGEA1_Y276_K278I] | 0.641 | 0.983 | 0.479 | 1.8 | 1.06 | 0.99 | 0.688 | 0.997 | 0.734 | 2.35 | 0.791 | 0.727 | 2.19 | 0.616 | 1.54 | 1
6 | CPSLLYSPVSS [CAMKK2_Y128_P127L] | 0.784 | 0.682 | 1.07 | 1.44 | 4.73 | 4.13 | 1.38 | 1.36 | 12.2 | 2.02 | 1.87 | 6.11 | 1.28 | 8.18 | 1.06 | 3.5
7 | EVRTQYEEIAQ [KRT76_Y361_A359T] | 0.882 | 0.967 | 20.6 | 1.08 | 0.679 | 0.504 | 0.49 | 0.726 | 0.588 | 1.04 | 0.455 | 0.576 | 0.919 | 0.395 | 0.899 | 0.376
8 | HKLSYCEYDFE [BTK_Y40_Y40C] | 1.3 | 0.68 | 0.914 | 1.78 | 0.857 | 1.14 | 0.762 | 1.34 | 0.687 | 1.76 | 1.68 | 0.746 | 1.29 | 0.535 | 0.871 | 2.46
9 | SQQTYYPVSNM [ABCD1_Y181_R182P] | 0.864 | 0.534 | 0.532 | 1.32 | 5.58 | 4.24 | 13.5 | 10.5 | 0.946 | 0.68 | 3.77 | 6.81 | 9.57 | 10.5 | 2.44 | 5.27
10 | GHNDVYISEHV [GRIN2A_Y1423] | 1.1 | 0.535 | 0.456 | 0.552 | 0.331 | 0.447 | 0.393 | 0.478 | 0.317 | 0.618 | 0.416 | 0.438 | 0.407 | 0.332 | 0.33 | 0.395
11 | SSRKEYFIGGG [GYPC_Y126] | 0.703 | 0.677 | 0.63 | 0.482 | 0.423 | 0.317 | 0.532 | 0.478 | 0.431 | 0.673 | 0.603 | 0.486 | 0.519 | 0.309 | 0.429 | 0.496
12 | EVGHVYLFLQP [ITGA2B_Y360_R358H] | 0.755 | 0.669 | 0.425 | 1.33 | 0.735 | 0.679 | 0.512 | 0.893 | 0.618 | 1.42 | 0.472 | 0.5 | 1.42 | 0.393 | 0.885 | 0.434
13 | PSAEGYQDVRD [ABLIM1_Y439] | 0.812 | 0.621 | 3.8 | 1.15 | 0.656 | 0.649 | 0.571 | 0.699 | 0.634 | 1.08 | 0.689 | 0.545 | 0.873 | 0.348 | 0.688 | 0.492
14 | RMSSSYPTGLA [ADM_Y52] | 0.714 | 0.406 | 0.422 | 0.525 | 0.37 | 0.447 | 0.562 | 0.613 | 0.502 | 0.542 | 0.525 | 0.509 | 0.473 | 0.433 | 0.518 | 0.334
15 | AARVSYWLASG [DCHS1_Y1582_R1583W] | 1.17 | 0.733 | 0.527 | 1.18 | 0.613 | 0.732 | 0.622 | 0.781 | 0.634 | 1.17 | 0.573 | 0.555 | 0.825 | 0.443 | 0.617 | 0.364
16 | FEPDAYDDLDQ [ELP5_Y302_YF] | 1.03 | 0.807 | 0.623 | 1.29 | 0.624 | 0.684 | 0.573 | 0.704 | 0.6 | 1.3 | 0.574 | 0.571 | 1.27 | 0.57 | 0.731 | 0.41
17 | WDLPEYSYKDP [ITGA3_Y237_S235P] | 0.89 | 0.77 | 0.784 | 2.12 | 0.631 | 0.651 | 0.688 | 0.926 | 0.517 | 1.18 | 1.12 | 0.787 | 1.18 | 0.464 | 0.545 | 0.495
18 | LKEIRYPPYTD [ALDH3B2_Y362_H361R] | 0.883 | 0.729 | 0.555 | 0.761 | 0.348 | 0.589 | 0.539 | 0.702 | 0.541 | 1.06 | 0.31 | 0.678 | 0.827 | 0.518 | 0.749 | 0.494

Second part, led by results:

Row | SH2 binding enrichment [14] | SH2 binding enrichment [15] | SH2 binding enrichment [16] | Sequence | phosphorylation enrichment [1] | phosphorylation enrichment [2] | phosphorylation enrichment [3] | phosphorylation enrichment [4] | phosphorylation enrichment [5] | phosphorylation enrichment [6] | phosphorylation enrichment [7] | phosphorylation enrichment [8] | phosphorylation enrichment [9] | phosphorylation enrichment [10] | phosphorylation enrichment [11] | phosphorylation enrichment [12] | phosphorylation enrichment [13]
19 | 0.725 | 0.531 | 0.546 | SRLDSYVRSLP [TRAPPC1_Y133] | 0.579 | 0.606 | 0.395 | 0.427 | 0.525 | 0.338 | 0.666 | 0.373 | 0.443 | 0.556 | 0.447 | 0.473 | 0.448
20 | 0.916 | 0.876 | 0.805 | FGYPGYQCKHY [TIMP3_Y177_S179C] | 0.718 | 0.295 | 0.519 | 0.46 | 0.59 | 0.374 | 0.806 | 0.477 | 0.44 | 0.588 | 0.704 | 0.473 | 0.428
21 | 0.932 | 0.518 | 0.434 | LLSVAYKNVVG [YWHAG_Y49] | 1.02 | 0.645 | 0.64 | 0.589 | 0.709 | 0.551 | 0.935 | 0.585 | 0.665 | 0.649 | 0.454 | 1.05 | 0.418
22 | 0.901 | 0.577 | 0.552 | YAREGYSALPQ [SARS2_Y52] | 0.678 | 0.499 | 0.459 | 0.522 | 0.52 | 0.439 | 0.789 | 0.396 | 0.58 | 0.904 | 0.442 | 0.541 | 0.373
23 | 0.751 | 0.808 | 0.574 | ACRSLYGGFVE [MVD_Y164] | 1.11 | 0.568 | 0.642 | 0.625 | 0.727 | 0.605 | 1.04 | 11.2 | 7.94 | 0.698 | 0.621 | 0.511 | 7.11
24 | 0.865 | 1.5 | 1.04 | FTAVGYHKHFT [NOMO1_Y1137_I1141F] | 0.614 | 0.252 | 0.366 | 0.449 | 0.589 | 0.449 | 0.935 | 0.431 | 0.426 | 0.782 | 0.424 | 0.491 | 0.552
25 | 0.849 | 0.859 | 1.4 | EFGFRYELVQF [UGGT2_Y1289_Y1285F_YF] | 1.26 | 0.592 | 0.585 | 0.477 | 0.853 | 0.887 | 1.21 | 0.433 | 0.509 | 1.11 | 0.375 | 0.64 | 0.315
26 | 1.06 | 0.766 | 0.568 | VRTGIYHGREP [PIK3CA_Y361_G364R] | 0.478 | 0.302 | 0.38 | 0.324 | 0.46 | 0.374 | 0.599 | 0.357 | 0.638 | 0.491 | 0.291 | 0.581 | 0.503
27 | 0.755 | 0.774 | 0.436 | NREGVYRVFAP [TGFBI_Y537_T538R] | 0.603 | 0.364 | 0.376 | 0.409 | 0.495 | 0.397 | 0.556 | 4.68 | 1.79 | 0.484 | 0.533 | 0.636 | 4.67
28 | 1.12 | 1.03 | 0.734 | IVFVICDEVVK [SLC25A1_Y297_Y297C] | 1.15 | 0.652 | 0.555 | 0.484 | 0.833 | 0.498 | 1.25 | 0.442 | 0.501 | 1.01 | 0.333 | 0.55 | 0.393
29 | 1.07 | 0.766 | 0.774 | WSQAMYPDLGP [STARD8_Y330_R327Q] | 1.06 | 0.476 | 0.636 | 0.493 | 0.583 | 0.475 | 0.921 | 0.47 | 0.486 | 0.765 | 0.393 | 0.648 | 0.47
30 | 0.885 | 0.838 | 0.451 | LDPIQYSKHPP [SQSTM1_Y433_T430P] | 0.691 | 0.473 | 0.588 | 0.624 | 0.828 | 0.634 | 0.663 | 0.472 | 0.795 | 0.481 | 0.384 | 0.448 | 0.303
31 | 0.886 | 0.448 | 0.486 | LQTFRYHGLSM [PDHA1_Y289_H292L_YF] | 1.26 | 1.05 | 0.822 | 0.835 | 1.38 | 1.27 | 1.21 | 1.07 | 0.578 | 0.732 | 0.747 | 0.589 | 0.356
32 | 1.05 | 0.719 | 0.728 | SVAVPYEPPEV [TP53_Y220_V217A] | 1.31 | 0.614 | 0.626 | 0.595 | 0.944 | 0.529 | 1.31 | 0.486 | 0.565 | 1.1 | 0.493 | 0.823 | 0.551
33 | 0.714 | 0.674 | 0.437 | DAVCFYRMENA [NPHS2_Y195_I192V_YF] | 1.21 | 0.698 | 0.685 | 0.698 | 1.06 | 0.614 | 1.23 | 0.986 | 0.788 | 1.22 | 0.695 | 0.882 | 3.07
